Laboratory results from patent publication US7214519B2, “Screening method for identifying heme independent modulators of soluble guanylyl cyclase (sGC) activity using αβCys105 mutant sGC” (Board of Regents of the University of Texas System, priority 2003, dated 2007).
Residue numbers refer to the chain shown, from its start. Read-outs that look alike come from different tables or passages of the source.

Assays:
[1] = biological target: T1, αβ^Cys105 mutant sGC (Homo sapiens, UniProt Q02108+Q02153, H105C); experiment: Assay of sGC activity ([32P]cGMP formation from GTP), purified αβ^Cys105 mutant enzyme; assay type: biochemical; details: for sensitivity to SNP after addition of hemin: absence of DTT
T1 construct: made in house; host or cells: Sf9 cells (baculovirus)
T1 sequence (Q02153 1-619 H105C): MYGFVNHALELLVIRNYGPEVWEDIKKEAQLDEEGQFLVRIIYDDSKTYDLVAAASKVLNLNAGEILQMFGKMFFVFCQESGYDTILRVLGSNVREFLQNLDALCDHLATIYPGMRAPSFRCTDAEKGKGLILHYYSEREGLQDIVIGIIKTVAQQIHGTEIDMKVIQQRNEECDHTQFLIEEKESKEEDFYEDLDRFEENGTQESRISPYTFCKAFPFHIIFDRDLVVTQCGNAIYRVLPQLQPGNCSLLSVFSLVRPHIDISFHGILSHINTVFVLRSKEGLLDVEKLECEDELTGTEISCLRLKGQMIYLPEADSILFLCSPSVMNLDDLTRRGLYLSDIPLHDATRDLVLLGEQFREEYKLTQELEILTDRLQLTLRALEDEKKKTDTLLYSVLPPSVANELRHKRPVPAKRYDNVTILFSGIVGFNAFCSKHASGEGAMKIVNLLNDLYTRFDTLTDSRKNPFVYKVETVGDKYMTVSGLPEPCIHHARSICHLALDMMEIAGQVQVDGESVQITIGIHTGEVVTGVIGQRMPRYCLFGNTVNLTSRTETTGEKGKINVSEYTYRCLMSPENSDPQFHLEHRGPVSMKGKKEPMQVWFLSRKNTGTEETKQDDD
T1 sequence (Q02108 1-690): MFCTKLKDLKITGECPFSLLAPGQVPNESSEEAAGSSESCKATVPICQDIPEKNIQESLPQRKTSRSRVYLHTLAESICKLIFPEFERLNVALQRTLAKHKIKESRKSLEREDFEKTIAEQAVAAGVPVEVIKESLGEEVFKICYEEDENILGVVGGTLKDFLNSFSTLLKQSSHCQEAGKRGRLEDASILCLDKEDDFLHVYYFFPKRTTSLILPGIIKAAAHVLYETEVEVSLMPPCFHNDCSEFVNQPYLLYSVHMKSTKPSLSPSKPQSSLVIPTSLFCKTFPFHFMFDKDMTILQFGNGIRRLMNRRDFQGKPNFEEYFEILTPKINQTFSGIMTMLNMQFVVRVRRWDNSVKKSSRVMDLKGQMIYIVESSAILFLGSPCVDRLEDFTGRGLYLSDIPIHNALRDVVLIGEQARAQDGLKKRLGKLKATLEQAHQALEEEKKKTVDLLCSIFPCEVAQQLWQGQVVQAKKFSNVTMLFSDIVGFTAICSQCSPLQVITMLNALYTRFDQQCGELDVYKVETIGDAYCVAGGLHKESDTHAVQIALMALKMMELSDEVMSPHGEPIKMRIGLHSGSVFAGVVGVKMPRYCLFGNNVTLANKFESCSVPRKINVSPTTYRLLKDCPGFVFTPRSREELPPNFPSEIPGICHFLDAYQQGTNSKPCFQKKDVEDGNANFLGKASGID
Description: (§1) sGC Expression and Purification. […] Purification of sGC was performed as described earlier (26), the disclosure of which is hereby incorporated herein by reference, with the following modifications. Cells were harvested 72 h post infection, resuspended in loading buffer (25 mM triethanolamine, pH 7.5. 10 glycerol, 4 mM MgCl2 and 1 mM phenylmethylsulfonyl fluoride, and 5 μg/ml each of pepstatin A, leupeptin, aprotinin, and chymostatin,) and lysed by sonication. The lysate was subjected to 100,000×g centrifugation for 1 h. The high-speed supernate was loaded on a 60 ml DEAE-Sepharose (Amersham Pharmacia Biotech) column and washed with 60 ml of loading buffer without protease inhibitors. The proteins were eluted with loading buffer containing 250 mM NaCl and the eluate was directly loaded on a 30 ml His-Bind resin (Novagen) column. The column was washed with 60 ml of loading buffer followed by 60 ml of loading buffer with 45 mM imidazole. The enzyme was eluted with 175 mM imidazole and 2 ml fractions were collected. […] The enzyme at this stage was approximately 90–95% pure. To remove imidazole, sGC-containing fractions were diluted 3 fold with 25 mM triethanolamine pH 7.5, loaded on a 2 ml Hi-Trap DEAE-Sepharose column (Amersham Pharmacia Biotech), washed with 10 ml of loading buffer and eluted with 25 mM triethanolamine pH 7.5, 250 mM NaCl, 10 glycerol, 4 mM MgCl2, 0.5 mM EDTA, 0.5 mM EGTA. The enzyme obtained at this stage (95% or greater purity) was used for experiments.
(§2) Assay of sGC Activity. Enzyme activity was assayed by formation of [^32P] cGMP from α[^32P]GTP at 37° C. in a final volume of 100 μl. Incubation medium contained 50 mM triethanolamine-HCl buffer (pH 7.4), 1 mM 3-isobutyl-1-methylxanthine (IBMX), 1 mg/ml BSA. 1 mM cGMP, 3 mM MgCl2, 0.05 mg/ml creatine phosphokinase, 5 mM creatine phosphate, 0.1 mM EGTA. 200 μM GTP (about 10.000 cpm/pmol). The reaction was started by addition of the substrate (GTP) with or without activators. 1 mM DTT, GSH or cysteine were added to the incubation medium before the addition of GTP. Thiol concentration varied in some experiments as indicated. Samples containing 0.2 μg sGC were incubated for 10 or 15 min and the reaction was stopped by addition of 500 μl 150 mM zinc acetate and 500 μl 180 mM sodium carbonate. The pellet of zinc carbonate containing most of the unreacted GTP was removed by centrifugation and the supernatant fractions were loaded onto columns filled with 1 g of neutral alumina. Columns were then eluted with 10 ml 0.1 M Tris-HCl buffer (pH 7.5) and Cherenkov radiation in flow through plus eluate was counted in a LKB liquid scintillation spectrometer. Samples incubated in the absence of sGC were used as a negative control. The concentration of dimethylsulfoxide (DMSO) used as a vehicle for YC-1 was not higher than 0.1 and had no effect on sGC activity as determined previously.

[2] = biological target: T1, αβ^Cys105 mutant sGC; experiment: Heme reconstitution of DTT-treated αβ^Cys105 enzyme followed by UV-Vis spectroscopy; assay type: binding; details: data not shown
Description: UV-Vis Spectroscopy. All absorbance measurements were recorded with a dual-beam Cecil 9500 spectrophotometer at 25° C. […] Hemin stock solution (5 mM) was prepared in DMSO and was reduced by dilution in 25 mM TEA, pH 7.5 containing 5 mM DTT to a working solution of 500 μM. The reduced heme was kept under argon in a gas-tight vial during the reconstitution.
The enzyme reconstituted with 10 μM hemin was subjected to gel filtration (after GF) or treated for 15 min with 50 μM NOC-7 (with NO) and the spectra recorded, as shown in FIG. 5D.

[3] = biological target: T2, wild type sGC (Homo sapiens, UniProt Q02108+Q02153); details: cited from earlier work
T2 construct: made in house; host or cells: Sf9 cells (baculovirus)
T2 sequence (Q02153 1-619): T1 sequence (Q02153 1-619 H105C) with C105H
T2 sequence (Q02108 1-690): T1 sequence (Q02108 1-690)

[4] = biological target: T2, wild type sGC; experiment: Assay of sGC activity ([32P]cGMP formation from GTP), purified wild type enzyme; assay type: biochemical
Description: as §1, §2

[5] = biological target: T3, Sf9 cells expressing wild type sGC (Homo sapiens, UniProt Q02108+Q02153); experiment: cGMP accumulation in intact Sf9 cells expressing wild type sGC; assay type: cell-based; details: basal, 0.5 mM IBMX
T3 construct: expressed in transfected cells; host or cells: Sf9 cells infected with baculoviruses
T3 sequence (Q02153 1-619): T1 sequence (Q02153 1-619 H105C) with C105H
T3 sequence (Q02108 1-690): T1 sequence (Q02108 1-690)
Description: Assay of cGMP Accumulation in Intact Cells. […] The reaction was terminated by addition of 50 μl of 1 M perchloric acid and cGMP was extracted on ice for 1 h. The extract was centrifuged, neutralized with 2M K2CO3 and used for cGMP determination by radioimmunoassay (9, 27). The pellet was dissolved in 0.1 M NaOH and used for protein assay by the method of Lowry (28).
Accumulated cGMP was extracted and quantified as described in Materials and Methods. Values are shown as means±s.d. The differences in intracellular accumulation of cGMP in Sf9 cells expressing the wild type enzyme or the mutant form are discussed below.

| Substance | sensitivity to SNP after addition of hemin ([1]; 1 μM hemin) | sensitivity to SNP after addition of hemin ([1]; 10 μM hemin, data not shown) | NO-activation upon addition of hemin ([1]; presence of 1 mM DTT) | molar excess of reduced hemin at which binding is saturated [2] [fold molar excess] | Km ([3]; Basal, read-out: GTP-Km) [µM] | Km ([3]; NO, read-out: GTP-Km) [µM] | Km ([3]; literature (12, 30–32), read-out: range of GTP-Km measured for the recombinant sGC) [µM] | specific activity after exposure to NO ([3]; recombinant wild type human sGC, previous studies) [µmol/min/mg] | PPIX activation, fold ([4]; +DTT) [fold] | Specific activity ([4]; +NO (SNP), with DTT (1 mM)) [µmol/min/mg] | Specific activity ([4]; +NO (SNP), with DTT (1 mM), listed as wild type) [µmol/min/mg] | Specific activity ([4]; +NO, without DTT) [µmol/min/mg] | Specific activity ([4]; Basal, with DTT (1 mM)) [µmol/min/mg] | Specific activity ([4]; Basal, with DTT (1 mM), listed as Wild type) [µmol/min/mg] | Specific activity ([4]; Basal, with DTT (1 mM), listed as wild type) [µmol/min/mg] | Specific activity ([4]; Basal, without DTT) [µmol/min/mg] | Specific activity ([4]; Basal, without DTT, listed as Wild type) [µmol/min/mg] | PPIX activation, fold ([4]; No DTT) [fold] | fold activation by NO ([4]; with DTT) | rate of cGMP accumulation [5] [nmol/mg/5 min] |
| --- | --- | --- | --- | --- | --- | --- | --- | --- | --- | --- | --- | --- | --- | --- | --- | --- | --- | --- | --- | --- |
| Hemin [reference compound] | did not confer any sensitivity to SNP | did not have any significant effect | partially restored its NO-activation | 13 | – | – | – | – | – | – | – | – | – | – | – | – | – | – | – | – |
| Wild Type: recombinant wild type human soluble guanylyl cyclase expressed in Sf9 cells | – | – | – | – | 65 to 448 | 11 to 134 | 65 to 450 | ~1.5 | 14 | 1.45 ± 0.1 | 1.4 | 1.41 ± 0.2 | 0.02 ± 0.01 | 0.02 | 0.02 | 0.05 ± 0.02 | 0.05 | 6 | (72.5) fold | 0.9 |
